B2: recombinant human IL-23 (hrIL-23), produced at Centocor (ligand)
chain 1: RAVPGGSSPAWTQCQQLSQKLCTLAWSAHPLVGHMDLREEGDEETTNDVPHIQCGDGCDPQGLRDNSQFCLQRIHQGLIFYEKLLGSDIFTGEPSLLPDSPVAQLHASLLGLSQLLQPEGHHWETQQIPSLSPSQPWQRLLLRFKILRSLQAFVAVAARVFAHGAATLSP
chain 2: IWELKKDVYVVELDWYPDAPGEMVVLTCDTPEEDGITWTLDQSSEVLGSGKTLTIQVKEFGDAGQYTCHKGGEVLSHSLLLLHKKEDGIWSTDILKDQKEPKNKTFLRCEAKNYSGRFTCWWLTTISTDLTFSVKSSRGSSDPQGVTCGAATLSAERVRGDNKEYEYSVECQEDSACPAAEESLPIEVMVDAVHKLKYENYTSSFFIRDIIKPDPPKNLQLKPLKNSRQVEVSWEYPDTWSTPHSYFSLTFCVQVQGKSKREKKDRVFTDKTSATVICRKNASISVRAQDRYYSSSWSEWASVPCS
notes: p19-p40 heterodimer; also called rhIL-23; huIL-23

Legend:
[1] = molecular target: B2; assay: hrIL-23/hIL-23R competition assay, soluble receptor as reference
[2] = molecular target: B2; assay: blocking ELISA (BRBA): biotinylated IL-23 with titrated soluble IL-23R-Fc, binding to plate-immobilized IL-23R-Fc
Procedure: (§1) In this experiment, a human IL-23R-Fc fusion protein was immobilized on a plate. This fusion protein consists of the extracellular domain of human IL-23 receptor fused to a human Fc segment. Biotinylated hrIL-23 was added to the plate either alone or after preincubation with individual IL-23p19 mAbs. Soluble IL-23R (IL-23R-Fc) was used as a positive control. IL-23 binding was detected with HRP-conjugated streptavidin. […] There was no inhibition by B21M, a mAb with unrelated specificity. […] IL-23 binding was inhibited by the p40 neutralizing mAb CNTO 1275 (same as mAb 12A), as expected. […] CNTO 1275 again served as a positive control.

[3] = molecular target: T1, IL-23R and IL-12Rβ1 naturally expressed on TALL-104 cells (human, UniProt Q5VWK5 24-629; P42701 24-662); assay: flow cytometry on TALL-104 cells
T1 construct: whole, on cells

[4] = molecular target: B2; assay: cell-based or functional assay
[5] = molecular target: B2; assay: biotinylated hrIL-23 on immobilized IL-23R-Fc
Procedure: as §1

[6] = molecular target: T2, recombinant human IL-12 (hrIL-12), produced at Centocor (human, UniProt P29459 23-219; P29460 23-328); assay: cytokine capture ELISA: mAbs coated onto plates, cytokines at 100 ng/ml, binding detected with mAb12B-biotin
T2 construct: also called IL-12 CNTO
T2 sequence (looked up) 1: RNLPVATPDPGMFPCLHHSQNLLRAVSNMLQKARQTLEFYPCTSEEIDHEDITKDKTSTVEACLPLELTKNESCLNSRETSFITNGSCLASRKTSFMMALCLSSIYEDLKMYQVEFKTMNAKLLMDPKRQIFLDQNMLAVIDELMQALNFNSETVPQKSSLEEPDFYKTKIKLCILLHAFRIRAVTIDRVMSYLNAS
T2 sequence (looked up) 2: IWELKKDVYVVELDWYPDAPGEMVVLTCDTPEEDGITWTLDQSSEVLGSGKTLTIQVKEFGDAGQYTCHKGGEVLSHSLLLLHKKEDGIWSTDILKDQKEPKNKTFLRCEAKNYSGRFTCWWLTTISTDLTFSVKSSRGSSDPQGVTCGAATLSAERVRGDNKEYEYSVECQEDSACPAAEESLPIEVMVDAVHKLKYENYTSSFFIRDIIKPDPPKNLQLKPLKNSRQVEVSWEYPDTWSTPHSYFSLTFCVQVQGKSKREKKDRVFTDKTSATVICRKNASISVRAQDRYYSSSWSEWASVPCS
Procedure: (§2) Purified mouse anti-hIL-23 mAbs were evaluated in cytokine capture ELISA to determine their antigen subunit specificity. Briefly, IL-23 mAbs were coated onto plates and incubated with 100 ng/ml) hrIL-23, hrIL-12, and hrp40, respectively. Following incubation with biotinylated anti-p40 mAb, the binding was detected using HRP—conjugated streptavidin. An anti-p40 mAb and an anti-IL-12 mAb (20C2, Catalog No. 555065, BD Pharmingen, San Diego, Calif.) with known specificity were used as controls.

[7] = molecular target: T3, p40 subunit of hrIL-12 (hrp40 monomer) (human, UniProt P29460 23-328); assay: as above
T3 construct: also called p40 R&D
T3 sequence (looked up): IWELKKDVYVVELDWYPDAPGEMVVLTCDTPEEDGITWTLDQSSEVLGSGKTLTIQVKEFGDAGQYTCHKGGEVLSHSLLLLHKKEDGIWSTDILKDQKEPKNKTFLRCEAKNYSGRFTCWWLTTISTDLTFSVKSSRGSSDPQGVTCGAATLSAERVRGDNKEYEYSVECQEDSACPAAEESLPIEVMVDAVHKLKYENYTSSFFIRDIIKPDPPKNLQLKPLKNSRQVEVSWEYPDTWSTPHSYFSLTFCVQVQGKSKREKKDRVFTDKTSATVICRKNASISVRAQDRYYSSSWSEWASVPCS
Procedure: as §2

mIL-12 = molecular target: T4, mIL-12 (Disulfide-linked, glycosylated heterodimer; the letters do not carry this.); assay: cytokine capture ELISA: mAbs coated onto plates, cytokines at 100 ng/ml; murine p40 containing cytokine detected with C17.8-biotin
T4 construct: also called murine IL-12; copies: 1 + 1
T4 alpha: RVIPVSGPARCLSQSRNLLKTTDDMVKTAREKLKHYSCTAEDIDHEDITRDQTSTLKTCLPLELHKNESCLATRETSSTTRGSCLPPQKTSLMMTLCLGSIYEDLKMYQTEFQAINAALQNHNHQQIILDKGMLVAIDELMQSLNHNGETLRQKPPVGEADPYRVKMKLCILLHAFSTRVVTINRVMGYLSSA
T4 beta: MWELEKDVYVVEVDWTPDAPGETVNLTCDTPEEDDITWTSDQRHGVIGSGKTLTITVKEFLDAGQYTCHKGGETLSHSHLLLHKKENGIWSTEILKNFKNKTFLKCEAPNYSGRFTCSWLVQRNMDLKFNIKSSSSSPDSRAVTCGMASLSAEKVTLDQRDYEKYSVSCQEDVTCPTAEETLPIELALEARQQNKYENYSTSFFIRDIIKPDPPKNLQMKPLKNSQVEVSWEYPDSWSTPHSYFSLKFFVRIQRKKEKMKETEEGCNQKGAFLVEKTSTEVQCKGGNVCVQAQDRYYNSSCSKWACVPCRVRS

murine IL-23 = molecular target: T5, murine IL-23 (murine, UniProt Q9EQ14 22-196; P43432 23-335); assay: as above
T5 sequence (looked up) 1: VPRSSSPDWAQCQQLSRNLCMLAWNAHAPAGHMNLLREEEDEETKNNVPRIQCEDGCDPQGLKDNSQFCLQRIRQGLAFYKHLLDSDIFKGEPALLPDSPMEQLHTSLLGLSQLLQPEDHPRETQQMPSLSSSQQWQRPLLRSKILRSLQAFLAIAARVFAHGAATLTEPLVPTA
T5 sequence (looked up) 2: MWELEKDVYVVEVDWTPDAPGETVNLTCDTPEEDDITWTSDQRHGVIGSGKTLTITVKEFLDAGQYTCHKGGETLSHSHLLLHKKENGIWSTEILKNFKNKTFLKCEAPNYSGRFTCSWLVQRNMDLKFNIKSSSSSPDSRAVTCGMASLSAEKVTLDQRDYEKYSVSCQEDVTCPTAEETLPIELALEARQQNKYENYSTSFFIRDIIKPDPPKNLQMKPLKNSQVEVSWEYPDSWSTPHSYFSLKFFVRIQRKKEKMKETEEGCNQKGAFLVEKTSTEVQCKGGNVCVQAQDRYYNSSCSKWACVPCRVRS

murine p40 = molecular target: T6, murine p40 (murine, UniProt P43432 23-335); assay: cytokine capture ELISA: mAbs coated onto plates, cytokines at 100 ng/ml; murine p40 containing cytokine detected with C17.8-biotin; target printed as m(p40)2
T6 sequence (looked up): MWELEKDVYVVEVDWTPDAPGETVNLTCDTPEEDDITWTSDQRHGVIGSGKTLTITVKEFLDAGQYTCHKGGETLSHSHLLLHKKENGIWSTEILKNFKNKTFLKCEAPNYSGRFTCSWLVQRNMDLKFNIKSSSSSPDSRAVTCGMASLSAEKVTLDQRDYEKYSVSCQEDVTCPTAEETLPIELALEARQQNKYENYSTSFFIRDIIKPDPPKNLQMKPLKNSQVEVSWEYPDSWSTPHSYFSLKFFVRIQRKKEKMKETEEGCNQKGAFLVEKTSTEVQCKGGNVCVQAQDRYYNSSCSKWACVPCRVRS

[8] = molecular target: B2; assay: blocking ELISA: 20 ng/ml IL-23-bt. with titrated mAb, binding to plate-immobilized IL-23R-Fc is blocked

B1: human IL-23R-Fc fusion protein (Fc fusion, UniProt Q5VWK5 24-355, looked up, not shown: a dimerising Fc or GST)
chain: GITNINCSGHIWVEPATIFKMGMNISIYCQAAIKNCQPRKLHFYKNGIKERFQITRINKTTARLWYKNFLEPHASMYCTAECPKHFQETLICGKDISSGYPPDIPDEVTCVIYEYSGNMTCTWNAGKLTYIDTKYVVHVKSLETEEEQQYLTSSYINISTDSLQGGKKYLVWVQAANALGMEESKQLQIHLDDIVIPSAAVISRAETINATVPKTIIYWDSQTTIEKVSCEMRYKATTNQTWNVKEFDTNFTYVQQSEFYLEPNIKYVFQVRCQETGKRYWQPWSSLFFHKTPETVPQVTSKAFQHDTWNSGLTVASISTGHLTSDNRGDIG
notes: extracellular domain; also called hIL-23R; soluble IL-23R
With B1 the IC50 [1] was 1.8 nM and the “IC50 (read off the curve)” value [2] was ~0.05 µg/mL.

B2: binds [3].

B3: MOR04190 mAb (antibody, human IgG1, V domains shown)
VH: QVELVQSGAEVKKPGSSVKVSCKASGGTFSSNYISWVRQAPGQGLEWMGGIIPIFGHANYAQKFQGRVTITADESTSTAYMELSSLRSEDTAVYYCARSKKGMYGGWTYPLMMFDLWGQGTLVTVSS
VL: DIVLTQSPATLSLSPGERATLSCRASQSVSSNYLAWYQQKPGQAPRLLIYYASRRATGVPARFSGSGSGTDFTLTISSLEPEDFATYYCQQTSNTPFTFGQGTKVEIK
notes: human IgG1/kappa; also called 4190 (κ); MOR0190
In the case of B3, the “IC50, inhibition of IL-17 production” value [4] is reported as 0.218 µg/mL, the “fold weaker potency than soluble IL-23R-Fc” value [5] is reported as ~3 fold and the binding result [6] is reported as “no binding (tested: 100 ng/ml)”. B3: no binding (tested: 100 ng/ml) [7]; no binding (tested: 100 ng/ml) (mIL-12); no binding (tested: 100 ng/ml) (murine IL-23). B3: no binding (tested: 100 ng/ml) (murine p40).

B4: MOR05049 mAb (antibody, human IgG1, V domains shown)
VH: QVELVESGGGLVQPGGSLRLSCAASGFTFSSFGMSWVRQAPGKGLEWVSGIEHKYLSYTTHYAASVKGRFTISRDNSKNTLYLQMNSLRAEDTAVYYCARYWGTPYLMQFDNWGQGTLVTVSS
VL: DIALTQPASVSGSPGQSITISCTGTSSDVGGYNSVSWYQQHPGKAPKLMIYSVSSRPSGVSNRFSGSKSGNTASLTISGLQAEDEADYYCSSYDTNKPLVVFGGGTKLTVL
notes: human IgG1/lambda
With B4 the “IC50, inhibition of IL-17 production” value [4] was 0.0162 µg/mL and the “IC50 (read off the curve)” value [8] was ~0.1 µg/mL.

B5: MOR04083 mAb (antibody, human IgG1, V domains shown)
VH: QVELVQSGAEVKKPGSSVKVSCKASGGTFSNYAISWVRQAPGQGLEWMGGIIPMFGYANYAQKFQGRVTITADESTSTAYMELSSLRSEDTAVYYCARDIYAGMDVWGQGTLVTVSS
VL: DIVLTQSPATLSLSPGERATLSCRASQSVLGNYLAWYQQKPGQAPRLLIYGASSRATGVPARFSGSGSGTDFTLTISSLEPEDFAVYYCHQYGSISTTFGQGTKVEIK
notes: human IgG1/kappa; also called 4083 (κ)
In the case of B5, the “IC50, inhibition of IL-17 production” value [4] is reported as 1.4 µg/mL, the “fold weaker potency than soluble IL-23R-Fc” value [5] is reported as ~3 fold and the binding result [6] is reported as “no binding (tested: 100 ng/ml)”. B5: no binding (tested: 100 ng/ml) [7]; no binding (tested: 100 ng/ml) (mIL-12); no binding (tested: 100 ng/ml) (murine IL-23). B5: no binding (tested: 100 ng/ml) (murine p40).
